Results taken from patent US20230265179A1.

target: CD40L (UniProt P29965); experiment: flow cytometry, 100 nM IgG, CD40L over-expressing Expi293 cells over parent Expi293 cells
Sequence (P29965 whole entry): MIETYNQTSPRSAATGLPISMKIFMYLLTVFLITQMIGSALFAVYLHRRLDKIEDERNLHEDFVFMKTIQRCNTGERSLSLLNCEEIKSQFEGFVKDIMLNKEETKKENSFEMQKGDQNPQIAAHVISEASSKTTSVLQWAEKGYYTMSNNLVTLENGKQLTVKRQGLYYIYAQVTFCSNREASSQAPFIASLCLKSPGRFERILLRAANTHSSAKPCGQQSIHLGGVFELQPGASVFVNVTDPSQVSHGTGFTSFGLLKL

| Binder | 100 nM FACS (MFI Ratio) [MFI ratio] |
| --- | --- |
| CD40L-385 (antibody, V domains shown) VH: EVQLLESGGGLVQPGGSLRLSCAASGFTFSNYAMSWVRQAPGKGLEWVSAITGSGSTTYYADSVKGRFTISRDNSKNTLYLQMNSLRAEDTAVYYCARAHDYDSMLMDYWGQGTLVTVSS VL: DIQMTQSPSSLSASVGDRVTITCRASQSIKSYLNWYQQKPGKAPKLLIYSASSLLSGVPSRFSGSGSGTDFTLTISSLQPEDFATYYCQQSYTLPRTFGGGTKVEIK | 1.9 |
| CD40L-417 (antibody, V domains shown) VH: EVQLLESGGGLVQPGGSLRLSCAASGFTFSKYAMNWVRQAPGKGLEWVSAISGSGESTYYADSVKGRFTISRDNSKNTLYLQMNSLRAEDTAVYYCARHGGYYYYYMDVWGQGTLVTVSS VL: DIQMTQSPSSLSASVGDRVTITCRGSQSISSFLNWYQQKPGKAPKLLIYAASKLHSGVPSRFSGSGSGTDFTLTISSLQPEDFATYYCQHSYSTPLTFGGGTKVEIK | 1.7 |
| CD40L-401 (antibody, V domains shown) VH: EVQLLESGGGLVQPGGSLRLSCAASGFTFGNYAMTWVRQAPGKGLEWVSAISGLGGSTYYADSVKGRFTISRDNSKNTLYLQMNSLRAEDTAVYYCTSSDPTYYYDSNGKSSLGMDVWGQGTLVTVSS VL: DIQMTQSPSSLSASVGDRVTITCRGSQSISSFLNWYQQKPGKAPKLLIYAASKLHSGVPSRFSGSGSGTDFTLTISSLQPEDFATYYCQHSYSTPLTFGGGTKVEIK | 1.8 |
| CD40L-392 (antibody, V domains shown) VH: EVQLLESGGGLVQPGGSLRLSCAASGFTFSSFDMTWVRQAPGKGLEWVSGISGSGGTTFYADSVKGRFTISRDNSKNTLYLQMNSLRAEDTAVYYCVRDVSDIYGYLDDAFDIWGQGTLVTVSS VL: DIQMTQSPSSLSASVGDRVTITCRASQDIRNYLNWYQQKPGKAPKLLIYATSSLQTGVPSRFSGSGSGTDFTLTISSLQPEDFATYYCQQSYGAPLTFGGGTKVEIK | 2 |

Second part, the binder after the results:

| 100 nM FACS (MFI Ratio) [MFI ratio] | Binder |
| --- | --- |
| 1.9 | CD40L-421 (antibody, V domains shown) VH: EVQLLESGGGLVQPGGSLRLSCAASGFTFSKYAMNWVRQAPGKGLEWVSAISGSGESTYYADSVKGRFTISRDNSKNTLYLQMNSLRAEDTAVYYCATDYGDYDRLNFDLWGQGTLVTVSS VL: DIQMTQSPSSLSASVGDRVTITCRGSQSISSFLNWYQQKPGKAPKLLIYAASKLHSGVPSRFSGSGSGTDFTLTISSLQPEDFATYYCQHSYSTPLTFGGGTKVEIK |
| 1.8 | CD40L-410 (antibody, V domains shown) VH: EVQLLESGGGLVQPGGSLRLSCAASGFTFRTYAMGWVRQAPGKGLEWVSAISGSGGIAYYADSVKGRFTISRDNSKNTLYLQMNSLRAEDTAVYYCARHYYYDSSDAFDIWGQGTLVTISS VL: DIQMTQSPFSLSASVGDRVTITCRASQNILTYLNWYQQKPGKAPKLLIYGASTLRSGVPSRFSGSGSGTDFTLTISSLQPEDFATYYCQQSYRLPLTFGGGTKVEIK |

target: CD40L over-expressed on Expi293 cells (UniProt P29965); experiment: flow cytometry, 100 nM antibody, CD40L-Expi293 vs parent Expi293 cells
Sequence (P29965 whole entry): as the sequence (P29965 whole entry) above

| 100 nM FACS (MFI Ratio) | Binder |
| --- | --- |
| 1.9 | CD40L-154 (VHH) VHH: EVQLVESGGGLVQPGGSLRLSCAASGRTSRSYEMGWFRQAPGKEREFVAAIDWDGSRTQYADSVKGRFTISADNSKNTAYLQMNSLKPEDTAVYYCAVPRETGWDGDWGQGTLVTVSS |
| 1.8 | CD40L-182 (antibody, V domains shown) VH: EVQLLESGGGLVQPGGSLRLSCAASGGYNFRDYMHWVRQAPGKGLEWVSYISSSGSSTYYADSVKGRFTISRDNSKNTLYLQMNSLRAEDTAVYYCAKNLGQGFDYWGQGTLVTVSS VL: DIQMTQSPSSLSASVGDRVTITCSGDNLGDKYVHWYQQKPGKAPKLLIYGKKNRPSGVPSRFSGSGSGTDFTLTISSLQPEDFATYYCQAWDRTVVFGQGTKVEIK |
| 2 | CD40L-141 (VHH) VHH: EVQLVESGGGLVQPGGSLRLSCAASGGTLDDYAMGWFRQAPGKEREFLASVSWGFGSTYYADSVKGRFTISADNSKNTAYLQMNSLKPEDTAVYYCAKDGGSYGMDVWGQGTLVTVSS |
